Test results: PMC8965080 (Frontiers in Microbiology, 2022)
One block for each molecule: values may come before it.

Assays:
Fdh3A = molecular target: T1, Fdh3A (Thermococcus onnurineus, UniProt B6YU84); experiment: formate-dependent methyl viologen reduction, absorbance at […] nm; format: biochemical; conditions: 100 mM sodium formate, 2 mM methyl viologen, 0.1 M Tris-HCl pH 8.5, 10% glycerol, 2 mM DTT; anaerobic; turnover only
T1 construct: gene TON_0539; Catalytic subunit alone; N-terminal 6xHis tag; expressed in T. onnurineus MF02 (parent 156T, fdh3 region deleted); one-step TALON IMAC
T1 sequence (B6YU84 1-680): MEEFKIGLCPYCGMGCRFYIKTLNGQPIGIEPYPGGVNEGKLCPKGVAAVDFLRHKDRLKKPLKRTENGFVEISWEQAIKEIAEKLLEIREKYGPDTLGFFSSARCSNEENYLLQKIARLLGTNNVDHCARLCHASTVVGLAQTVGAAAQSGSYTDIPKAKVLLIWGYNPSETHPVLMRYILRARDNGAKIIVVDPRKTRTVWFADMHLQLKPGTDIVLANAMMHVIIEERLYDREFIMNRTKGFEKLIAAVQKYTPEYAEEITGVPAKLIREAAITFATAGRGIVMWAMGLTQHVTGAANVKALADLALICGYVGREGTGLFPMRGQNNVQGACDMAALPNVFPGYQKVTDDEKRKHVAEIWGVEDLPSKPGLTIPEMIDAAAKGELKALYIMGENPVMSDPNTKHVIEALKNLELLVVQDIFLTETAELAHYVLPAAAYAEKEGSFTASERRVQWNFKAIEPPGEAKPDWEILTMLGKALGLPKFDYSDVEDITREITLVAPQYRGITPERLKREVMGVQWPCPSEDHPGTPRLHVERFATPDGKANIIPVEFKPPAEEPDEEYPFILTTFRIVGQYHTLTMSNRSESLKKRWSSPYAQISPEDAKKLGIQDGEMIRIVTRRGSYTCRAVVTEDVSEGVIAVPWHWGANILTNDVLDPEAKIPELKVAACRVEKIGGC

[1] = molecular target: Fdh3A, formate dehydrogenase large (catalytic) subunit (TON_0539) of Thermococcus onnurineus NA1, with N-terminal 6X-His tag (Thermococcus onnurineus NA1)
[2] = molecular target: Fdh3A, formate dehydrogenase large (catalytic) subunit (TON_0539) of Thermococcus onnurineus NA1, with N-terminal 6X-His tag (Thermococcus onnurineus NA1); experiment: affinity purification with mass spectrometry; lysate of strain MF01 on TALON IMAC resin (N-terminal 6X-His on Fdh3A), eluted with 300 mM imidazole, then SEC on Superose 6 Increase 10/300 in buffer A (0.1 M Tris-HCl pH 8.0, 150 mM NaCl, 19 mM KCl, 10% glycerol); bands of the SDS-PAGE identified by MALDI mass spectrometry; anaerobic chamber
purified protein [3] = substrate: O=CO; experiment: purified protein; conditions: NADP+ as electron acceptor (2 mM in the standard assay), 0.1 M Tris-HCl pH 8.5, 10% glycerol, 2 mM DTT, anaerobic, optimum 80 °C (temperature of Km assay not stated), catalytic site on Fdh3A (TON_0539)
purified protein [4] = substrate: NC(=O)c1ccc[n+]([C@@H]2O[C@H](COP(=O)(O)OP(=O)(O)OC[C@H]3O[C@@H](n4cnc5c(N)ncnc54)[C@H](OP(=O)(O)O)[C@@H]3O)[C@@H](O)[C@H]2O)c1; experiment: purified protein; format: biochemical, Thermococcus onnurineus; conditions: co-substrate formate (100 mM in the standard assay), 0.1 M Tris-HCl pH 8.5, 10% glycerol, 2 mM DTT, anaerobic, optimum 80 °C (temperature of Km assay not stated), site on Fdh3B (TON_0542) by model

Molecule: C[n+]1ccc(-c2cc[n+](C)cc2)cc1 [methyl viologen]
formate-dependent methyl viologen reduction, absorbance at 578 nm (Fdh3A): The specific activities of formate-dependent methyl viologen reduction of Fdh3 and Fdh3A were similar

formate-dependent ferredoxin-reducing activity of Fdh3A alone (purified from strain MF02), based on the same methyl viologen activity [1]: 16.8 mU/U
formate-dependent ferredoxin-reducing activity of the purified Fdh3 complex (Fdh3A with Fdh3B, Fdh3G1 and Fdh3G2), based on the same methyl viologen activity [1]: 17.9 mU/U
Molecule: ferredoxin Fd0317 (TON_0317) of Thermococcus onnurineus NA1 (from UniProt B6YTB5 1-67) (natural protein)

Molecule: O=CO [formate]
formate-dependent methyl viologen reduction, absorbance at 578 nm (Fdh3A): The specific activities of formate-dependent methyl viologen reduction of Fdh3 and Fdh3A were similar

stoichiometry N [2]: 1
Molecule: Fdh3B, NAD(P)-binding protein (TON_0542) of Thermococcus onnurineus NA1 (natural protein)

B1: Fdh3 (Thermococcus onnurineus NA1) (protein)
chain 1: MEEFKIGLCPYCGMGCRFYIKTLNGQPIGIEPYPGGVNEGKLCPKGVAAVDFLRHKDRLKKPLKRTENGFVEISWEQAIKEIAEKLLEIREKYGPDTLGFFSSARCSNEENYLLQKIARLLGTNNVDHCARLCHASTVVGLAQTVGAAAQSGSYTDIPKAKVLLIWGYNPSETHPVLMRYILRARDNGAKIIVVDPRKTRTVWFADMHLQLKPGTDIVLANAMMHVIIEERLYDREFIMNRTKGFEKLIAAVQKYTPEYAEEITGVPAKLIREAAITFATAGRGIVMWAMGLTQHVTGAANVKALADLALICGYVGREGTGLFPMRGQNNVQGACDMAALPNVFPGYQKVTDDEKRKHVAEIWGVEDLPSKPGLTIPEMIDAAAKGELKALYIMGENPVMSDPNTKHVIEALKNLELLVVQDIFLTETAELAHYVLPAAAYAEKEGSFTASERRVQWNFKAIEPPGEAKPDWEILTMLGKALGLPKFDYSDVEDITREITLVAPQYRGITPERLKREVMGVQWPCPSEDHPGTPRLHVERFATPDGKANIIPVEFKPPAEEPDEEYPFILTTFRIVGQYHTLTMSNRSESLKKRWSSPYAQISPEDAKKLGIQDGEMIRIVTRRGSYTCRAVVTEDVSEGVIAVPWHWGANILTNDVLDPEAKIPELKVAACRVEKIGGC
chain 2: MSGMRFAFLCRERPEPTGKKIAVIGAGPAGLAATGYLVCQGHEVHVYDKLPEPGGLMLFGIPEFRIPIYRVREGYEELERVYNVKFFTRTKVYFGNLEGESGDEFVENRVDFKELVEKYDAVLIATGTWKCWIPNIEGAELEGVFPALEYLFRIKSAKLGHMDWGKVTPVEGKKVLVVGAGHTAVDAALESVLLGADKVYLSYRRTIREAPAGAYEINLLQQRGVKWLERTMPVRIIGENGKVRAVELVKTKLSEPDESGRRRPVPIEGSNFQIDVDYVIFAVGQSPTPPFAEEIDIAVDKKGRIVVDNRHMTSREGVFAAGDVVLGPSKVGKAVKDGLYAAEAMHMWLMGR
notes: Tungsten-containing cytoplasmic complex; N-terminal 6xHis tag on TON_0539; overexpressed in T. onnurineus MF01 (fdh1 fdh2 fdh3 deleted), TALON IMAC and SEC; 524 kDa by SEC; TON_0541 not detected
Km (purified protein [3]): 13.5 mM
Km (purified protein [4]): 0.040 mM
